Substitutions are numbered along the chain they refer to. In names and notes the source's numbering stands.
T1: Myc-Smo (6Myc-tagged Smoothened) (Drosophila, UniProt P91682 32-1036)
T1 sequence (looked up): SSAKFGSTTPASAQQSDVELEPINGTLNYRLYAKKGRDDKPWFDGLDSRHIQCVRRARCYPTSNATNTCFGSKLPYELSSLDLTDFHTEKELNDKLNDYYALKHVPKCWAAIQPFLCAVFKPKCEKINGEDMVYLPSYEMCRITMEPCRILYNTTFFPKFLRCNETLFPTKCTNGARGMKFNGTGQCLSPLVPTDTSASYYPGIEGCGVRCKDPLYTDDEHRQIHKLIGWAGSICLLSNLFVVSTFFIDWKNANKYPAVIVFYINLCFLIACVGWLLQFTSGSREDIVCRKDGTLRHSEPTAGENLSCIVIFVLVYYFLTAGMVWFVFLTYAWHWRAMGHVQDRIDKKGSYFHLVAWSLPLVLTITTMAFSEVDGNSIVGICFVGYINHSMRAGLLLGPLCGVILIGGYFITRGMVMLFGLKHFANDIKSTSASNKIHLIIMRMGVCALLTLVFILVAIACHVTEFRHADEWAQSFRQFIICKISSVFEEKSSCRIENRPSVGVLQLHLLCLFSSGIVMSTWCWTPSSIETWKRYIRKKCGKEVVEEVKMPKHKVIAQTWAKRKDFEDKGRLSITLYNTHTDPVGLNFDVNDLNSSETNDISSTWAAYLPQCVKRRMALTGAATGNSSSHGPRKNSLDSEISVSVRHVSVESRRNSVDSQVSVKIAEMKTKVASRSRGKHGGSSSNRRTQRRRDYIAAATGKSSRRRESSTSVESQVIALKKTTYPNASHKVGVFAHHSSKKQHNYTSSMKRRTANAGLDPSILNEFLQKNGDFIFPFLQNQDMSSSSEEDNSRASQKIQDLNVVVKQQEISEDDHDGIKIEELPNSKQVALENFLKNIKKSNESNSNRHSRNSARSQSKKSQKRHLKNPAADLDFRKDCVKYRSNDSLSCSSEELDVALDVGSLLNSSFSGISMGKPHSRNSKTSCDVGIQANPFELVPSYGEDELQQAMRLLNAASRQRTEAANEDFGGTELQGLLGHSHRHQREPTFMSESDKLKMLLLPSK

B1: Krz^Leu-Flag (pAWF-Krz^Leu; Leu440-Ile441-Leu443 to Ala) (natural protein, Drosophila, UniProt Q9V393 1-470, looked up)
chain: MNGGGGGSGGANVSNGSSTNVTAAGSTGGGSAGDETGGDASSRRQATRVFKKSSSNGKITVYLGKRDFVDHVTHVDPIDGVVFIDPEYVKDRKVFGQVLAAFRYGREDLDVLGLTFRKDLYLAHEQIYPPMQLDRPMTRLQERLIKKLGPNAHPFYFEVPPYCPASVSLQPAPGDVGKSCGVDYELKAFVGENVEDKPHKRNSVRLTIRKVMYAPSKVGEQPSIEVSKEFMMKPNKIHLEATLDKELYHHGEKISVNVHVANNSNRTVKKIKVCVRQFADICLFSTAQYKSVVAEIESEDGCQVAPGFTLSKVFELCPLLANNKDKWGLALDGQLKHEDTNLASSTLITNPAQRESLGIMVHYKVKVKLLISSPLLNGDLVAELPFTLMHPKPEEEEHPLLGERSPRASLAGGGLPLVSMSDGETESATGGQDVPTTTNAAQADDDEAQDDDIIFEDFARLRLKGAETEA
B2: Krz^V94D-Flag (pAWF-Krz^V94D) (natural protein, Drosophila, UniProt Q9V393 1-470, looked up)
chain: B1 chain with V94D, A440L, A441I, A443L

Molecular target: T1, Myc-Smo (6Myc-tagged Smoothened)
Assay: co-IP; lysates of stable Myc-Smo S2 cells transiently transfected with pAWF-krz constructs, grown in Hh conditioned medium for 18-24 hrs; immunoprecipitated with anti-Myc agarose at 4°C for 4-16 h with 1 mg/ml BSA (IP buffer: 40 mM Tris-HCl, 200 mM NaCl, 1% Chapso, 0,5% NP40); blotted with anti-Krz serum and anti-Myc
Conditions: partners not purified

Row | Binder | fold of co-immunoprecipitate over wild type Krz
1 | B1 | 4 times over wild type Krz
2 | B2 | 3 times over wild type Krz

Source: article PMC3060076 (PLoS Genetics, 2011)
